According to article PMC12052123, “Investigating the quaternary structure of a homomultimeric catechol 1,2-dioxygenase: An integrative structural biology study” (PLOS One, 2025):

Molecular target: the molecule itself
Experiment: native gel or EMSA; semi-native PAGE (8%), Tris-Gly buffer system without detergent or denaturing agents, 100 V, 18 °C, Coomassie; lyophilized and reconstituted SfC12DO

B1: catechol 1,2-dioxygenase from Stutzerimonas frequens GOM2 (enzyme, UniProt A0ABX6XR78 1-312, looked up)
chain: MTVKISHTNDVQQFFKEASGFNNDAGSSRLKTVINRVLADTARIIEDLEITQDEFWKAVDYINRLGGRHEAGLLVAGLGLEHYLDLLQDAKDEQEGLVGGTPRTIEGPLYVAGAPIAEGEVRMDDDSEEGVATTMFLQGRVTGPDGKPLAGATVDLWHANTKGNYSYFDKSQSEYNLRRRIVTDENGYYRARSIVPSGYGCSPDGPTQEVLDMLGRHGQRPAHIHFFISAPGHRHLTTQINLAGDKYLWDDFAYATRDGLVGDIRFIDDAEAARARGVQGRFAEVDFDFQLQKAPAPQAEQRSKRPRALQQA
notes: catechol 1,2-dioxygenase encoded by the CatA gene of Stutzerimonas frequens GOM2 (Pseudomonas stutzeri GOM2); regions are labelled up to residue 312; Non-heme Fe3+ enzyme; Number of copies depends on the sample: dimer when non-lyophilized; dimer, tetramer, (hexamer), octamer and >20-mer after lyophilization and reconstitution; also called SfC12DO; PsC12DO; source: used non-lyophilized, or …
- stoichiometry N: 6
